Measurements: article PMC4632033

Molecular target: T1, XisR (YdaQ), rac excisionase (Escherichia coli K-12 (BW25113; MS match MG1655)) (UniProt P76057)
T1 sequence: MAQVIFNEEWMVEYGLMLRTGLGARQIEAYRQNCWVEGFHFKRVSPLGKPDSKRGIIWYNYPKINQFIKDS
Assay: EMSA
Settings: LightShift Chemiluminescent EMSA kit protocol (binding buffer not stated), 25 C, 1 h; 0.5x TBE polyacrylamide gel; protein stored in 20 mM Tris-HCl, 500 mM …

Sequence | binding
AGATTTCTTATGCTGGGCGTTCCGGCATGACGCATACTCTTCTGATGCCATATAACGAATTGAGTCGCTTTTAAATGTCGCAAAATCAAGAAATTAGTAAGAAAGAACAATACAACCTGAACAAGTAAGGGCAAAAATCACAACTCTCTGACTCATAAGTATTTTACTTATTTTTCAATGTGTTAAATATCATCAGCGACAACAATAAGCTACGATAATCCACTCTTTTTTTGCCCCTTTTTTGCCCCTTTTGCAGCGTTTTGCCCCATTTTTGCCACCGAAAAAAATTCCAAA (double strand) [AttR] | binds
CTATATGCCTTTGATGCGGAGGAATGAATGTGATGGGAGTGATGTATCTGAATAGTTGAAAAACCGCAGTCACGTCGTATGCAAGAACGTGCTGCGGTTGGTTTGACTTTGATTGAGACGTTTTGGAATTTTTTTCGGTGGCAAAAATGGGGCAAAACGCTGCAAAAGGGGCAAAAAAGGGGCAAAAAAAGAGTGGATTATCGTAGCTTATTGTTGTCGCTGATGATATTTAACACATTGAAAAATAAGTAAAATACTTATGAGTCAGAGAGTTGTGATTTTTGCCCTTAC (double strand) [AttM] | no binding
